Test results published in patent publication US20190125833A1 (Five Prime, published 2019).

T1: Myostatin (UniProt O14793 267-375, limits assumed)
T1 sequence (looked up): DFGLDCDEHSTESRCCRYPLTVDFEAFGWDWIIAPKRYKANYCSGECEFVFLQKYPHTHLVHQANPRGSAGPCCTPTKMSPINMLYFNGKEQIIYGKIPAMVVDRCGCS

B1: mNOPE (1-955) ECD-FC (Fc fusion, not shown: a dimerising Fc or GST)
chain: ELPLPQETTVKLSCDEGPLQVILGPEQAVVLDCTLGATAAGPPTRVTWSKDGDTVLEHENLHLLPNGSLWLSSPLEQEDSDDEEALRIWKVTEGSYSCLAHSPLGVVASQVAVVKLATLEDFSLHPESQIVEENGTARFECHTKGLPAPIITWEKDQVTVPEESRLITLPNGVLQILDVQDSDAGSYRCVATNSARQRFSQEASLTVALRGSLEATRGQDVVIVAAPENTTVVSGQSVVMECVASADPTPFVSWVRQDGKPISTDVIVLGRTNLLIASAQPRHSGVYVCRANKPRTRDFATAAAELRVLAAPAISQAPEALSRTRASTARFVCRASGEPRPALHWLHDGIPLRPNGRVKVQGGGGSLVITQIGLQDAGYYQCVAENSAGTACAAAPLAVVVREGLPSAPTRVTATPLSSSSVLVAWERPELHSEQIIGFSLHYQKARGVDNVEYQFAVNNDTTELQVRDLEPNTDYEFYVVAYSQLGASRTSSPALVHTLDDVPSAAPQLTLSSPNPSDIRVAWLPLPSSLSNGQVLKYKIEYGLGKEDQVFSTEVPGNETQLTLNSLQPNKVYRVRISAGTGAGYGVPSQWMQHRTPGVHNQSHVPFAPAELKVRAKMESLVVSWQPPPHPTQISGYKLYWREVGTEEEADGDRPPGGRGDQAWDVGPVRLKKKVKQYELTQLVPGRLYEVKLVAFNKHEDGYAAVWKGKTEKAPTPDLPIQRGPPLPPAHVHAESNSSTSIWLRWKKPDFTTVKIVNYTVRFGPWGLRNASLVTYYTSSGEDILIGGLKPFTKYEFAVQSHGVDMDGPFGSVVERSTLPDRPSTPPSDLRLSPLTPSTVRLHWCPPTEPNGEIVEYLILYSNNHTQPEHQWTLLTTEGNIFSAEVHGLESDTRYFFKMGARTEVGPGPFSRLQDVITLQKTFSDSLDVHAV
B2: hNOPE (1-957) ECD-FC (Fc fusion, not shown: a dimerising Fc or GST)
chain: ELLLPQETTVELSCGVGPLQVILGPEQAAVLNCSLGAAAAGPPTRVTWSKDGDTLLEHDHLHLLPNGSLWLSQPLAPNGSDESVPEAVGVIEGNYSCLAHGPLGVLASQTAVVKLATLADFSLHPESQTVEENGTARFECHIEGLPAPIITWEKDQVTLPEEPRLIVLPNGVLQILDVQESDAGPYRCVATNSARQHFSQEALLSVAHRGSLASTRGQDVVIVAAPENTTVVSGQSVVMECVASADPTPFVSWVRQDGKPISTDVIVLGRTNLLIANAQPWHSGVYVCRANKPRTRDFATAAAELRVLAAPAITQAPEALSRTRASTARFVCRASGEPRPALRWLHNGAPLRPNGRVKVQGGGGSLVITQIGLQDAGYYQCVAENSAGMACAAASLAVVVREGLPSAPTRVTATPLSSSAVLVAWERPEMHSEQIIGFSLHYQKARGMDNVEYQFAVNNDTTELQVRDLEPNTDYEFYVVAYSQLGASRTSTPALVHTLDDVPSAAPQLSLSSPNPSDIRVAWLPLPPSLSNGQVVKYKIEYGLGKEDQIFSTEVRGNETQLMLNSLQPNKVYRVRISAGTAAGFGAPSQWMHHRTPSMHNQSHVPFAPAELKVQAKMESLVVSWQPPPHPTQISGYKLYWREVGAEEEANGDRLPGGRGDQAWDVGPVRLKKKVKQYELTQLVPGRLYEVKLVAFNKHEDGYAAVWKGKTEKAPAPDMPIQRGPPLPPAHVHAESNSSTSIWLRWKKPDFTTVKIVNYTVRFSPWGLRNASLVTYYTSSGEDILIGGLKPFTKYEFAVQSHGVDMDGPFGSVVERSTLPDRPSTPPSDLRLSPLTPSTVRLHWCPPTEPNGEIVEYLILYSSNHTQPEHQWTLLTTQGNIFSAEVHGLESDTRYFFKMGARTEVGPGPFSRLQDVITLQEKLSDSLDMHSVT

Biological target: T1, Myostatin
Assay: cell-based or functional assay

| Binder | IC50 of inhibition of myostatin dependent SMAD2/3 activation (luciferase reporter, HEK293, 0.1 nM myostatin) | fold difference of IC50 against hNOPE (1-620) ECD-FC | fold difference of IC50 against hNOPE (1-957) ECD-FC |
| --- | --- | --- | --- |
| B1 | 0.068 nM | 2.5 fold | 7 fold |
| B2 | 0.5 nM | – | – |
